Consider 20 sequences from a protein production outcome set (Wang et al. 2014).

A short description of the series: label from the status in PepcDB records.
Turning to “MLPDVFRADTGSRSLIQAQSDAQAVLTWLAEHADRPATLAAYRKEAERLLLWLAPRRQTLAQVKREDVLDYRRFLASPHPAEQWLGPARPRSHPDWKPFSKPLSPASVEHSLTVLGALFAYLNDAGYLNGNPFKLLRRRGARKSAQEIERFLDADCWRHLQATLNGLPRGSDREIRHAERALWLFTLLYLTGARRAEAAAARACDLARRNGNWWWHVVGKGGVSARIPLSDELMDALARYRLSLGLPPQPAADEDTPLVCRVGSKGQAKPLSDKAIYLVCKEVFGRAQAAAPNEDIRAKLRAASTHWLRHTAASHQLEAGVPLLLVSQNLRHASIQTTRRYLHSEEDARHEASRLHKLKRDS”, the protein production entry is recorded as “failed”.
Regarding “MRRLALLFPVLALLVGVWAFPLLGPLFRHGAVPNPFALKEPFTLLVYGSSPEYVEYHKRAPERFRGLADTILLVRLDPGANRVVVLSVPRDVWVLLPGHGWHKVNAASPLGGPELMKEAVARITGVRPDRYVVVSLEALRRGVDALGGVRVCVEKPMRYQDQAAGLVIDLEPGCQVLSGAQAEGYLRFRKDALGDIGRIQRQQAFFHALKDQLFSLPGLLRLPRAVAAVEPYVATDLTRGEKGALLGFLLRRPAFVSLLLPGRFAGGWAVDEAAWARLRAVYFEDREAWGEALAGKRAVVLFGPGQGALAQEAAERLKALGLSVSLRELALAPERTEVLENGPGRLAQALGEALGVPYRVSGEAALGADLTLRLGREGLPR”, the protein production entry was “failed”.
Regarding “MTRRGAQKASPSRAPGETALSTLYVTHPSAVEHVVPTGHPERPARMQAVERALEDERFAALVRCHAPRAEASVAELVHPASYVETIVAASPDEGFFQIDGDTLMSPGSLNTCLHAIGGSNHAVDAVMKGECANAFVAMRPPGHHAERDRAMGFCLFNHAAIAVRHAQKAFGATRVALVDFDVHHGNGSQDIFWADKTVMYASTHQMPLFPGSGATGERGDHDTIVNAPLKAFDGSELFREAFEARILPRLDAFAPDLIVISAGFDAHKLDPLANIQLDEADFGWATRRLMEVADRHAGGRVVSILEGGYSLDGLARSVAAHMDALMGR”, the protein production result is listed as “failed”.
In the case of “FTDITERYQHAEALSESERWIRLITDHVPALIAYLNADLVYEFTNKVYEEWYCWPRGVMLGQSLREVHSEQHYQRLESYVERALAGESVTFEFAETNINNQERYMLRSYVPNRLANGEVVGIFVLIRDITERRRTAEALHQAYQNLELRV”, the protein production result was “failed”.
“MSLPTEMHHNLGAEKRSAVATTIDSFKERSQKVRALSDPNVRFVPFFGSSEWLRFDGAHPAVLAEKYNRSYRPYLLGQGGAASLNQYFGMQQMLPQLENKQVVYVISPQWFSKNGYDPAAFQQYFNGDQLTSFLKHQSGDQASQYAATRLLQQFPNVAMKDLVQKLASKEELSTADNEMIELLARFNERQASFFGQFSVRGYVNYDKHVAKYLKILPDQFSYQAIEDVVKADAEKNTSNNEMGMENYFYNEQIKKDLKKLKDSQKSFTYLKSPEYNDLQLVLTQFSKSKVNPIFIIPPVNKKWMDYAGLREDMYQQTVQKIRYQLESQGFTNIADFSKDGGEPFFMKDTIHLGWLGWLAFDKAVDPFLSNPTPAPTYHLNERFFSKDWATYDGDVKEFQEGHHHHHH”: the protein production entry is “not failed”.
Next, “MHLATLASGSSGNSIVVGHEKRNFLVDCGISLKATLHNLAILDIAPSEIEGIFITHEHSDHIKGVGAVARKLKIPIYASAKIWDELNPSIGKLKDEQRVVVKDAFTCAGLRVRVFPTSHDSQESFGVRVEVEQPVKGRSRAIGIATDTGIVTEEMHQALKGCDALVVEANHDREMLWQGGYPWYLKKRISGNYGHLENSQLAEGLLQWIEGNTQRIVLAHLSDENNTPETALSTILRILKESRVAKENRDLRLRVAPRYTPHELIVLEEY”: “failed”; “MNIAPLKVSLLSLALLLSPVASLPAHAACTANLALQPASSLPALGGRLVYHSYMEYGDGSSNLYLHDFKSKSTRQLNQPGWNIEDPMNAHFSPDGRYLTFMGRQNGAWHVFAWAIGGTQAPSNLTAAIGGRNEDPKFSFDGRQVVLKHEGDIRLATLVFNGDGSVGVSAWKAVTGDGWSTEESMPFLTPSGKYVVYATGAGDSLRVVRRNLENGQVCALATPAAGGRDYYPVVRDYTAYFLSRTQPAGNDQLAMVVPNSPPGTPAILPLNHCQGDNSDAAPVNEDYLIFSSTSFDPTYSLLLGDIAAARVWRLDPAQINLPDGRQKLGASYTAAR”: “failed”.
As for “MQSINFRTARGNLSEVLNNVEAGEEVEITRRGREPAVIVSKATFEAYKKAALDAEFASLFDTLDSTNKELVNRLEHHHHHH”, the protein production result is recorded as “not failed”.
The entry for “MIIGIDLGTTNSAVAYIDDSGNPTILPNREGERVTPSVIFFEDGSPVIGSTAKSISVSDPTNTVQFVKRQMGNASYKFPIGGEVFTPEDLSALILKRLKEDAEEAIGAKVTKAVITVPAYFDDAQRKATQDAGRIAGLHVLKVINEPTAAALAYGLANREQKQNVMVYDLGGGTFDVTLIQLNQDEVVVKATGGDRNLGGFDFDNKIFELVEQKFEEEHGLDLYDDLNAVQDLREKAEACKKMLSSRKKSVITLSSQGRTVKVEVTKEKFDELLSPLLSRTALIMKNVLMDAELSWGDIDKIVLVGGSTRVPAVSDLIERTTGIKPSKDVNPDEVVALGAAIQGSLLQVDNEASNNAEEFKPKTRVVDVNSHSLGILIHDNNTGGFINQKMIVRNTPIPASEEAVFYTVNDGQTSLHVQVTEGEDSDPDFVKVIGESNLDLRGSKPQGYPVRFIFTYDENGVVHVYGKDENTGQHLGEMQIERKSNLTEAAIEKKAEKLAGISVE” is “failed”.
The entry for “NTITVSELLELIKKEDVIIVDTRSPREFKEETLPGAINIPLFLDDEHALIGKTYKQESREKAIEIATDIVEKSLKRILNEAKKLDRDKLIVVFCARGGMRSQTMALILQLLGFKVKRLIGGFKAFKHA” is “not failed”.
Next, “MMDRDDDGYAERVAFYDTVYEQPERALDLAWLRRWLPPQFFGRRVLELACGSGYWTQYLAPAARAYQALDVSAGALALAGQRPGVGGVAFAVGEVETLPRPAQPFDAVFAGLWFSHLPRQRREGALAALHGCLAPGATVILLDNSEAQGGQFPVVEYDSEGNGYQSRPRHDGGQSRVLKNFPTEAEFRILLAPYGAAEIALMRREHFWLLRYRLPSRH”: “failed”.
Regarding “MNLKAMDAILEDCCDIVCSDYLPSAMIKSMCIVAERINNLNKAVSLFTSNPAKAVGIYDERGSIKENKKADLVLVDIDSEYPKVVNTIVNGKTVYKRELEHHHHHH”, the protein production result is listed as “failed”.
With “MRDYATTAAGFDLQRTAAATLSGTLQALNACVECCDRHALPGRIALFWEGKDGSRASYTFSELKALSGRFANFLQAQGVRPGDCVAGLLPRTPELLVTILGAWRLGAVYQPLFTAFGPKAIEHRVATAGSKVLVTDAANRDKLDELADPPLAVTVGGPKGQGIRRGDFSFWAELERYPAEFEPVPRSGEDPFLMMFTSGTTGLAKPVPVPLKAILAFVGYLREAVDLRPEDAFWNLADPGWAYGLYYAVAGPLAMGHPTTFYEGPFSVESTCRIIRDYGITNLAGSPTAYRLLMAAGAAAETALKGRLRAVSSAGEPLTPEVIRWFADRLGTTIHDHYGQTELGMVLCNHHALAHPVRVGAAGFACPGHRVVVLDDDLNELPPGQPGILALDRRRSPLMWFPGYQGLETAAFVGDYYLSGDTVELNEDGSISFVGRADDVITTSGYRVGPFDVESALIEHPAVMEAAVIGKPDPERTELVKAFVVLCAGHRPTPELADALQRYVRQRLSAHAYPREIEFLEELPKTPSGKIQRFLLRNQEIARQREAAPRAAAAN”, the protein production result is reported as “failed”.
Next, “MRKRNPRRATPEELRVCSVLKEKGTREELAHLAARGEWSNVPAYNASREQIADHLGKSVSPESDASFFDSRRFSEAIVLLKSRPVLLVKNGIFDEAPLAGLEQRLKKHRAALATPIRSVGRLELIDHDSMDWCGTGWRIEDDLIVTNRHVASLFAERQGSLFRFRLNQAGKQVRTRVDFREEYRQPESDEHVIARVLWIAPDVSEAPDMAILQVVKGDLLPPPLVLARQDAEPRQAVAVVGYPARDSRNDAGAMEDIFGNIYDVKRFAPGEVVGLPHDAWYLTHDCSTLGGNSGSAVLSIDGGEVVGLHFGGQFRKTNYAVKASVIRSLLARRAWVPVAGAELKRGVPRFQEKQRSVADLAERKGFDEAFLGPKAALPKPGKSHQVLPVGKGTRLDYLHFSVVMSASRRLPILTAVNIDGALKRSLKRKDSWGFDPRIEAAAQVGHKDFYGPASFDKGHMVRREDPGWGDSDAVARQAEDDTFVYTNAVPQVAQLNQRSWLSLEDYVLQNARSEGFRISVFTGPVFRDDDPLYQGVQVPLEFWKVVAMIDADSGELGVSAYLLGQEGMMPSEGFRYGAFKTYQVPLAKVEASADLRFSSALRKADVLAGTPLEEALESGRFIEIDGPDDLLLSRPGPAGKGPLRFRPAAATRVAVR”: “failed”; “MTTMQSRERLVKWLQDAYAMEKEAETMMAAMASRIEHYPELKRRIEQHVEETQQQSAGVQRCLELLNGSIPTAKGMLSSVLASMHAAGNSMMTDEVTKGVGISYAFEHLEIASYRALVVAARSAGEQEVAQICEDILQQEIEMAEWLIEHQEAIVVAFLEREQLEGVTAKR”: “not failed”.
As to “MKRKLVTSALPYVNNFPHLGNLIQVLSADVFARFCRLKEYETLYICGTDEYGTATETKALEEKKSPEELCSFYHAIHAEIYNWFNIAFDYFGRTSTPQQTEITQGIFNDLDKNGYITEHTIEQLYCPSCKRFLADRYVLGTCPSCSYDGARGDQCEHCGKLLDPTDLKEPRCSSCGAAPEVRSTTHLYINLPKIVPEYEKWMPKTAEEGRWSNNALQMSKSWLRDGLQERAITRDLKWGIPVPKKGFEDKVFYVWFDAPIGYISITKCWADLAGKDWKAWWLDQNDVELFQFIGKDNIPFHTVIFPCSLIGSGKNWTKLFHMSGTEYLNYENGKFSKSKGVGVFGNDAKESGIPADMWRFYIFYNRPEKNDTQFTWKDFQERVNSELIGNLCNLVNRTATFIHRYYDGKIPQVDGAKSGREDIKSMVKSLREAASASFKKITELSDWAELRDSFHEAFALSSVANKAFQDGEPWKRRETDPEYAEALMSELCYLIKDILILIHPYMPQYADQAAGFFGQKIWSGNIFDGKAPQFNKPEGSFLSWKNLGEREGLKTVENPVIIFKTLDNKVIDAYRERYSGSQKDRKKSEKGCSACKDSGSSKSDAAASSAKPEVKLSPAELFSKKIALKTAKIISVERHPDADKLYIEKLDDGSGEERTILSGLVPFLKEDEILGKTVIIADNLKPRKMRGIESKGMLLAASWYDEEEKEHVELLQAPWAAPGTPVILEGDADISDPEAVKAFYAQKPAAIDADTFFAAPILIEDYIPKIEGKKLLVAGKEMKLEKVKTGEAG”, the protein production entry is reported as “failed”.
Next, “MLVQKNEAFLWLHFYLISNFIVVIMQMFILVMYYLIIVDHSFVELNEQVNPLFSFLLFVFHSDLSFFPVLVQLIF”: “failed”; “MTQELQTLEVEEEMMMRKFYELMSRQRLNKKMIMLVLIEIDVGSFEENGEDSKCVTWTERHKPLKGNNAAGVLPLQRLVRDGLLAYGPEVF”: “failed”.
The entry for “LEAVAPERPRCAYCSAEASKRCSRCQNEWYCCRECQVKHWEKHGKTC” is “not failed”; for “MPQPTSQQRASVASSQSTQGAVGWSAATGWVVLFVAVALVVWFVSLDMRHLVGPDEGRYAEISREMFASGDWVTIRYNALKYFEKPPFHMWVTVVGYELFGLGEWQARLAVALSGLLGIGVSMMAARRWFGARAAAFTGLALLAAPMWSVAAHFNTLDMTLAGVMSCVLAFMLMGQHPDASVAARRGWMVACWAAMGVAILTKGLVGIALPGLVLVVYTLVTRDWGLWRRLHLALGVVVMLVITVPWFYLVSVRNPEFPNFFFIHEHWQRYTSNIHSRSGSVFYFLPLVIGGFLPWAGIFPKLWTAMRAPVEGTQARFRPALMAGIWAIAIFVFFSISRSKLPGYIVPVIPALGILAGVALDRLSPRSWGKQLIGMAIVAACGLLASPVVATLNANHIPNSFYRAYAVWVAVAFVVMLLGIAVARLLLRRGVLPSVAVYAMGMYLGFTVALLGHETVGRPASGADIAPQIAQKLTPEMPLYGVQMLDHTLPFYLRHPLMMVGQADELTFGATVEPQRVVPDVDSFTKLWKNGQPAMAVMSPDTYLALAPTLSMYVVARDWRRVVVANVASLAGPQ” it is “failed”.
